Experimental findings from patent US20080085279A1 are described below.

Read-outs that look alike come from different tables or passages of the source.

In assay [1] the target is Recombinant MDM2 (baculovirus-expressed, pBlueBacHis2:MDM2) (human) (UniProt Q00987). Briefly: cell-based or functional assay.
The target is the same in assay [2]. Briefly: cell-based or functional assay. The source holds these as a separate data set.

Sequence of Recombinant MDM2 (baculovirus-expressed, pBlueBacHis2:MDM2) (human) (Q00987 whole entry): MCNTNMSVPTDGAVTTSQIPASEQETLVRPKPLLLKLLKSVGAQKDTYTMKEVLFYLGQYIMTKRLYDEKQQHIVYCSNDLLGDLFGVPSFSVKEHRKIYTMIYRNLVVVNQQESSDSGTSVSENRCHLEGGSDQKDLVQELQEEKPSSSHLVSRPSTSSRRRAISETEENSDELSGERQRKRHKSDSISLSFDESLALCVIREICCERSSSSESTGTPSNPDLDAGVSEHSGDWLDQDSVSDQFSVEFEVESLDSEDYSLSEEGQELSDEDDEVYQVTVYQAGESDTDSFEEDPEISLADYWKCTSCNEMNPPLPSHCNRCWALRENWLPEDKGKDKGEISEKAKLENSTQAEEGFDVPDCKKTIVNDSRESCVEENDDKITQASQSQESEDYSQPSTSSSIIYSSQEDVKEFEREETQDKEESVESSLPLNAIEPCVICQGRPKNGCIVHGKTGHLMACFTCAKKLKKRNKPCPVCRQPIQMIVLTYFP

For “Recombinant hMTBP (bacterially expressed from pQE-hMTBP) (from UniProt Q96DY7 1-904)”, the MDM2 auto-ubiquitination in vitro (molar ratio MTBP:MDM2) turned out to be 3 in assay [1] and 10 in assay [2].
